Experiment [1] concerns the target T1, recombinant human PlGF-2 (produced in Pichia) (human, UniProt P49763-3 19-170, limits assumed).
T1 construct: also called huPlGF-2; rhuPlGF-2
T1 sequence (looked up): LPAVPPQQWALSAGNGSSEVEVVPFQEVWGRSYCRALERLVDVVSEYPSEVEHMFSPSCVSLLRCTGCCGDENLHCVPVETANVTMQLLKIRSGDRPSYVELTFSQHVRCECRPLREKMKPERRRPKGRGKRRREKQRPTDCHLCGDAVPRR
Put plainly: Biacore, rhuPlGF-2 (Pichia) immobilized, antibody injected. Background: In SPR one partner is held on a chip, and binding of the other changes the refractive index at the surface.

Experiment [2] addresses T2, human PlGF-1 (human, UniProt P49763-2 19-149, limits assumed).
T2 construct: also called huPlGF-1; huPlGF
T2 sequence (looked up): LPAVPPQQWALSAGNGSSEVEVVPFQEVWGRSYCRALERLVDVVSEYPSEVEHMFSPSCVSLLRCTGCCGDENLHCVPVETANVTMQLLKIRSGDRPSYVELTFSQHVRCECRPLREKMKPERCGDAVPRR
Put plainly: ELISA, plate coated with huPlGF-1, detection with anti-huIgG-HRP (Fab specific), OPD. On the procedure: ELISA plates were coated ON with […] huPlGF-1 in PBS, 100 μL/well, 4° C. After blocking with 1% BSA, 1 hr, RT, a dilution series of humanized Fab16D3 was added, 100 μL/well, the antibody fragment was allowed to bind for 1 hr, RT. Bound humanized Fab16D3 was detected with anti-huIgG-HRP(Fab specific) (100 μL/well, 1 hr RT). The assay was developed with OPD.
On the technique in general: ELISA stands for enzyme-linked immunosorbent assay.

Experiment [3] deals with T2, human PlGF-1. Put plainly: ELISA, plate coated with 1 µg/ml huPlGF-1, detection with murine anti-HA and goat anti-murine IgG-HRP, OPD. As to the method:
ELISA plates were coated ON with 1 μg/ml huPlGF-1 in PBS, 200 μL/well, 4° C. After blocking with 1% BSA, 1 hr, RT, a dilution series of scFv16D3/humanized scFv16D3 was added, 200 μL/well, the antibody fragment was allowed to bind for 1 hr, RT. Bound scFv16D3 was detected with murine anti-HA (180 μL/well, 1 hr RT) followed by incubation with goat-anti-murine IgG-HRP (Sigma), 170 μL/well, 1 hr, RT. The assay was developed with OPD.

Experimental findings from patent publication US20110123525A1 (THROMBOGENICS N V, published 2011) are described below.

For orientation: Kd means the free concentration of one partner at which half of the binding sites on the other are occupied at equilibrium, for simple one-to-one binding. For orientation: EC50 (read off the curve) means the concentration giving half of the maximal effect.

B1: murine monoclonal anti-human PlGF antibody 16D3 (antibody, V domains shown)
VH: QIQLQQSGPELVKPGASVKISCKASGYTFTDYYINWVKLKPGQGLEWIGWIYPGSGNTKYNEKFKGKATLTIDTSSSTAYMQLSSLTSEDTAVYFCVRDSPFFDYWGQGTTLTVSS
VL: DIVLSQSPSSLAVSAGEKVTMRCKSSQSLLNSGMRKSFLAWYQQKPGQSPKLLIYWASTRESGVPDRFTGSGSGTDFTLTISSVQAEDLAVYYCKQSYHLFTFGSGTKLEIK
notes: Whole mouse antibody from hybridoma LMBP 6399CB; also called anti-hPlGF; hp16D3mousecomplAB
As for B1, the Kd in experiment [1] is 0.29 nM.

B2: humanized Fab 16D3 (Fab, V domains shown)
VH: QVQLQQSGAELVKPGASVKISCKASGYTFTDYYINWVKLAPGQGLEWIGWIYPGSGNTKYNEKFKGKATLTIDTSSSTAYMQLSSLTSEDTAVYFCVRDSPFFDYWGQGTLLTVSS
VL: DIVLTQSPDSLAVSLGERVTMNCKSSQSLLNSGMRKSFLAWYQQKPGQSPKLLIYWASTRESGVPDRFTGSGSGTDFTLTISSVQAEDVAVYYCKQSYHLFTFGSGTKLEIK
notes: also called hp16D3mutcomplFab; hp16D3mutcmplFab
For the molecule B2, the “EC50 (read off the curve)” value with human PlGF-1 [2] is around 90 µg/mL. Besides, the Kd in experiment [1] is 0.131 nM.

B3: humanized antibody 16D3 IgG4 kappa (antibody, V domains shown)
VH: QVQLQQSGAELVKPGASVKISCKASGYTFTDYYINWVKLAPGQGLEWIGWIYPGSGNTKYNEKFKGKATLTIDTSSSTAYMQLSSLTSEDTAVYFCVRDSPFFDYWGQGTLLTVSS
VL: DIVLTQSPDSLAVSLGERVTMNCKSSQSLLNSGMRKSFLAWYQQKPGQSPKLLIYWASTRESGVPDRFTGSGSGTDFTLTISSVQAEDVAVYYCKQSYHLFTFGSGTKLEIK
notes: Expressed transiently in HEK 293 cells; also called hu16D3; Hu16D3 IgG4κ
B3: in experiment [1], the Kd was found to be 0.161 nM.

B4: humanized scFv of 16D3 (scFv)
scFv: QVQLQQSGAELVKPGASVKISCKASGYTFTDYYINWVKLAPGQGLEWIGWIYPGSGNTKYNEKFKGKATLTIDTSSSTAYMQLSSLTSEDTAVYFCVRDSPFFDYWGQGTLLTVSSGGGGSGGGGSGGGGSDIVLTQSPDSLAVSLGERVTMNCKSSQSLLNSGMRKSFLAWYQQKPGQSPKLLIYWASTRESGVPDRFTGSGSGTDFTLTISSVQAEDVAVYYCKQSYHLFTFGSGTKLEIKGSYPYDVPDYAGSHHHHHH
notes: also called humanized scFv16D3; scFvhp16D3mut
Take B4: in the experiment with human PlGF-1 [3], the “EC50 (read off the curve)” value is around 0.1 µg/mL. For the same molecule, the Kd in experiment [1] turned out to be 0.195 nM.

B5: scFv of murine antibody 16D3 (scFv)
scFv: QIQLQQSGPELVKPGASVKISCKASGYTFTDYYINWVKLKPGQGLEWIGWIYPGSGNTKYNEKFKGKATLTIDTSSSTAYMQLSSLTSEDTAVYFCVRDSPFFDYWGQGTTLTVSSGGGGSGGGGSGGGGSDIVLSQSPSSLAVSAGEKVTMRCKSSQSLLNSGMRKSFLAWYQQKPGQSPKLLIYWASTRESGVPDRFTGSGSGTDFTLTISSVQAEDLAVYYCKQSYHLFTFGSGTKLEIKGSYPYDVPDYAGSHHHHHH
notes: also called scFv16D3; scFv hp16D3
With B5, the “EC50 (read off the curve)” value with human PlGF-1 [3] was around 0.1 µg/mL.
